17 molecules from publication PMC4240464 (The Febs Journal, 2013) can be followed below.

Usually Kd stands for a measure of binding affinity in units of concentration. As a reminder, the koff is the rate constant with which the complex falls apart. A high value points to a short-lived complex. One may read the kon as the rate constant with which the complex forms. High values mean fast association, low ones slow association.

Sequences and labels used below:
B1: CCL16 (ligand)
chain: QPKVPEWVNTPSTCCLKYYEKVLPRRLVVGYRKALNCHLPAIIFVTKRNREVCTNPNDDWVQEYIKDPNLPLLPTRNLSTVKIITAKNGQPQLLNSQ
B2: CCL14 (ligand)
chain: TKTESSSRGPYHPSECCFTYTTYKIPRQRIMDYYETNSQCSKPGIVFITKRGHSVCTNPSDKWVQDYIKDMKEN
B3: CCL1 (ligand)
chain: KSMQVPFSRCCFSFAEQEIPLRAILCYRNTSSICSNEGLIFKLKRGKEACALDTVGWVQRHRKMLRHCPSKRK
B4: CCL3 (ligand)
chain: SLAADTPTACCFSYTSRQIPQNFIADYFETSSQCSKPGVIFLTKRSRQVCADPSEEWVQKYVSDLELSA
B5: CCL15 (ligand)
chain: QFTNDAETELMMSKLPLENPVVLNSFHFAADCCTSYISQSIPCSLMKSYFETSSECSKPGVIFLTKKGRQVCAKPSGPGVQDCMKKLKPYSI
B6: CCL7 (ligand)
chain: not shown
B7: CCL26 (ligand)
chain: TRGSDISKTCCFQYSHKPLPWTWVRSYEFTSNSCSQRAVIFTTKRGKKVCTHPRKKWVQKYISLLKTPKQL
B8: CCL8 (ligand)
chain: QPDSVSIPITCCFNVINRKIPIQRLESYTRITNIQCPKEAVIFKTKRGKEVCADPKERWVRDSMKHLDQIFQNLKP
B9: CCL24 (ligand)
chain: VVIPSPCCMFFVSKRIPENRVVSYQLSSRSTCLKAGVIFTTKKGQQFCGDPKQEWVQRYMKNLDAKQKKASPRARAVAVKGPVQRYPGNQTTC
B10: CCL19 (ligand)
chain: GTNDAEDCCLSVTQKPIPGYIVRNFHYLLIKDGCRVPAVVFTTLRGRQLCAPPDQPWVERIIQRLQRTSAKMKRRSS
B11: 6His–Evasin-4 (natural protein)
chain: EVPQMTSSSAPDLEEEDDYTAYAPLTCYFTNSTLGLLAPPNCSVLCNSTTTWFNETSPNNASCLLTVDFLTQDAILQENQPYNCSVGHCDNGTCAGPPRHAQCW
B12: CCL23 (ligand)
chain: RVTKDAETEFMMSKLPLENPVLLDRFHATSADCCISYTPRSIPCSLLESYFETNSECSKPGVIFLTKKGRRFCANPSDKQVQVCMRMLKLDTRIKTRKN
B13: CCL5 E26A (ligand)
chain: SPYSSDTTPCCFAYIARPLPRAHIKAYFYTSGKCSNPAVVFVTRKNRQVCANPEKKWVREYINSLEMS
B14: CCL17 (ligand)
chain: ARGTNVGRECCLEYFKGAIPLRKLKTWYQTSEDCSRDAIVFVTVQGRAICSDPNNKRVKNAVKYLQSLERS
B15: CCL11 (ligand)
chain: not shown
B16: CCL22 (ligand)
chain: GPYGANMEDSVCCRDYVRYRLPLRVVKHFYWTSDSCPRPGVVLLTFRDKEICADPRVPWVKMILNKLSQ
B17: CCL18 (ligand)
chain: AQVGTNKELCCLVYTSWQIPQKFIVDYSETSPQCPKPGVILLTKRGRQICADPNKKWVQKYISDLKLNA

Read-outs that look alike come from different tables or passages of the source.

What all share (test): SPR
Assay [1] has as its target B11.
For assay [2], the target named is T1, Evasin-4 (untagged recombinant) (Rhipicephalus sanguineus, UniProt P0C8E9 24-127, appears to be highly glycosylated (six putative N-glycosylation sites)).
T1 sequence: B11 chain

Assay [3] deals with B11. This is another data set of the same source.
Assay [4] deals with T2, CCL21 (human, UniProt O00585 24-134).
T2 sequence: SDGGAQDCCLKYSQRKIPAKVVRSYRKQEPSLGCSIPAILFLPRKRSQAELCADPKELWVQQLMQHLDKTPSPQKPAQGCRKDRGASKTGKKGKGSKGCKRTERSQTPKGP

For assay [5], the target named is T3, CCL25 (human, UniProt O15444 24-150).
T3 sequence: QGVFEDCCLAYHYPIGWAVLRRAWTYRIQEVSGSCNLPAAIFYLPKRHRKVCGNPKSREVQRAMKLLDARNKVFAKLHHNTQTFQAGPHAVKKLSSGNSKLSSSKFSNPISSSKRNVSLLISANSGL

In assay [1], B1 returned a Kd of 0.26 nM, a koff of 0.00306 s⁻¹ and a kon of 1.2e+07 M⁻¹ s⁻¹.

With B2, in assay [1], the affinity, expressed as Kd, was 0.14 nM; the koff came out at 0.00148 s⁻¹; the kon was 1.04e+07 M⁻¹ s⁻¹.

For the molecule B3, the Kd in assay [2] is 112 nM. In assay [1], this molecule came in with a Kd of 0.2 nM, a koff of 0.00326 s⁻¹ and a kon of 1.66e+07 M⁻¹ s⁻¹. In addition, in assay [3], the Kd was determined as 1.81 nM.

Turning to B4, the Kd in assay [2] stood at 33.1 nM. In assay [1], this molecule displayed a Kd of 0.06 nM, a koff of 0.00089 s⁻¹ and a kon of 1.38e+07 M⁻¹ s⁻¹. Moreover, the Kd in assay [3] was determined as 0.393 nM.

B5: in assay [2], the Kd was determined as 132 nM. Also, in assay [1], the affinity, expressed as Kd, was 2.31 nM; the koff was determined as 0.0936 s⁻¹; the kon amounted to 4.05e+07 M⁻¹ s⁻¹. The molecule further came in with a Kd in assay [3] of 0.199 nM.

In assay [1], B6 yielded a Kd of 0.7 nM, a koff of 0.00988 s⁻¹ and a kon of 1.41e+07 M⁻¹ s⁻¹. In addition, the Kd in assay [3] amounted to 0.045 nM.

In assay [1], B7 gave a Kd of 0.88 nM, a koff of 0.00015 s⁻¹ and a kon of 170000 M⁻¹ s⁻¹. Further, in assay [3], the affinity, expressed as Kd, was 11.4 nM.

With B8, in assay [1], the Kd was determined as 0.25 nM, the koff came out at 0.00176 s⁻¹ and the kon is 7.11e+06 M⁻¹ s⁻¹. The molecule further displayed a Kd in assay [3] of 0.22 nM.

In the case of B9, in assay [1], binding was put at a Kd of 0.41 nM, the koff was found to be 0.0125 s⁻¹ and the kon amounted to 3.05e+07 M⁻¹ s⁻¹. For the same molecule, the Kd in assay [3] was determined as 142 nM.

In assay [1], B10 displayed a Kd of 0.14 nM, a koff of 0.00035 s⁻¹ and a kon of 2.57e+06 M⁻¹ s⁻¹.

In assay [4], B11 registered a Kd of 0.01 nM, a koff of 8e-05 s⁻¹ and a kon of 1.1e+07 M⁻¹ s⁻¹. For the same molecule, in assay [5], the Kd was found to be 69.6 nM, the koff is 0.00054 s⁻¹ and the kon worked out at 8000 M⁻¹ s⁻¹.

With B12, the Kd in assay [2] turned out to be 14.1 nM. In assay [1], the Kd worked out at 4.43 nM, the koff was found to be 3e-05 s⁻¹ and the kon was 6000 M⁻¹ s⁻¹. This molecule yielded a Kd in assay [3] of 10.8 nM.

Regarding B13, the Kd in assay [2] worked out at 194 nM. In assay [1], binding was put at a Kd of 0.09 nM, the koff turned out to be 0.00223 s⁻¹ and the kon was found to be 2.6e+07 M⁻¹ s⁻¹. For the same molecule, in assay [3], the affinity, expressed as Kd, was 0.002 nM.

As to B14, the Kd in assay [2] was determined as 126 nM. In assay [1], this molecule showed a Kd of 0.61 nM, a koff of 0.0107 s⁻¹ and a kon of 1.76e+07 M⁻¹ s⁻¹.

On to B15, for which, in assay [2], the Kd came out at 128 nM. In assay [1], this molecule yielded a Kd of 0.34 nM, a koff of 0.00435 s⁻¹ and a kon of 1.29e+07 M⁻¹ s⁻¹. For the same molecule, the Kd in assay [3] is 0.069 nM.

In assay [1], B16 came in with a Kd of 0.43 nM, a koff of 0.0038 s⁻¹ and a kon of 8.9e+06 M⁻¹ s⁻¹.

Consider B17, for which, in assay [1], the Kd was determined as 0.03 nM, the koff is 0.00053 s⁻¹ and the kon stood at 1.96e+07 M⁻¹ s⁻¹. The molecule further yielded a Kd in assay [3] of 0.198 nM.
